Assay results as given in publication PMC5241739, “Structure of the Toll/Interleukin-1 Receptor (TIR) Domain of the B-cell Adaptor That Links Phosphoinositide Metabolism with the Negative Regulation of the Toll-like Receptor (TLR) Signalosome*^([image sbox.jpg])” (The Journal of Biological Chemistry, 2016).

B1: BCAP330, the first 330 residues of BCAPL (domain or fragment, human, UniProt Q6ZUJ8-1 1-330, looked up)
chain: MAASGVPRGCDILIVYSPDAEEWCQYLQTLFLSSRQVRSQKILTHRLGPEASFSAEDLSLFLSTRCVVVLLSAELVQHFHKPALLPLLQRAFHPPHRVVRLLCGVRDSEEFLDFFPDWAHWQELTCDDEPETYVAAVKKAISEDSGCDSVTDTEPEDEKVVSYSKQQNLPTVTSPGNLMVVQPDRIRCGAETTVYVIVRCKLDDRVATEAEFSPEDSPSVRMEAKVENEYTISVKAPNLSSGNVSLKIYSGDLVVCETVISYYTDMEEIGNLLSNAANPVEFMCQAFKIVPYNTETLDKLLTESLKNNIPASGLHLFGINQLEEEDMMTN
notes: B-cell adaptor for phosphoinositide 3-kinase (BCAP), human, the N-terminal 330 residues (TIR and DBB domains); also called N-terminal variant; source: cloned into pMCSG7, purified (StrepTrap, S200 size exclusion)
B2: BCAPS, splice variant of BCAP (natural protein, human, UniProt Q6ZUJ8-2 1-627, looked up)
chain: MVVQPDRIRCGAETTVYVIVRCKLDDRVATEAEFSPEDSPSVRMEAKVENEYTISVKAPNLSSGNVSLKIYSGDLVVCETVISYYTDMEEIGNLLSNAANPVEFMCQAFKIVPYNTETLDKLLTESLKNNIPASGLHLFGINQLEEEDMMTNQRDEELPTLLHFAAKYGLKNLTALLLTCPGALQAYSVANKHGHYPNTIAEKHGFRDLRQFIDEYVETVDMLKSHIKEELMHGEEADAVYESMAHLSTDLLMKCSLNPGCDEDLYESMAAFVPAATEDLYVEMLQASTSNPIPGDGFSRATKDSMIRKFLEGNSMGMTNLERDQCHLGQEEDVYHTVDDDEAFSVDLASRPPVPVPRPETTAPGAHQLPDNEPYIFKVFAEKSQERPGNFYVSSESIRKGPPVRPWRDRPQSSIYDPFAGMKTPGQRQLITLQEQVKLGIVNVDEAVLHFKEWQLNQKKRSESFRFQQENLKRLRDSITRRQREKQKSGKQTDLEITVPIRHSQHLPAKVEFGVYESGPRKSVIPPRTELRRGDWKTDSTSSTASSTSNRSSTRSLLSVSSGMEGDNEDNEVPEVTRSRSPGPPQVDGTPTMSLERPPRVPPRAASQRPPTRETFHPPPPVPPRGR
notes: The first residue is worked out from the legend's words 'lacks the first 180 amino acids'; source: cloned into pMCSG7, purified (StrepTrap, S200 size exclusion)
B3: Full-length BCAP, BCAPL (1–805) (natural protein, human, UniProt Q6ZUJ8-1 1-805, looked up)
chain: MAASGVPRGCDILIVYSPDAEEWCQYLQTLFLSSRQVRSQKILTHRLGPEASFSAEDLSLFLSTRCVVVLLSAELVQHFHKPALLPLLQRAFHPPHRVVRLLCGVRDSEEFLDFFPDWAHWQELTCDDEPETYVAAVKKAISEDSGCDSVTDTEPEDEKVVSYSKQQNLPTVTSPGNLMVVQPDRIRCGAETTVYVIVRCKLDDRVATEAEFSPEDSPSVRMEAKVENEYTISVKAPNLSSGNVSLKIYSGDLVVCETVISYYTDMEEIGNLLSNAANPVEFMCQAFKIVPYNTETLDKLLTESLKNNIPASGLHLFGINQLEEEDMMTNQRDEELPTLLHFAAKYGLKNLTALLLTCPGALQAYSVANKHGHYPNTIAEKHGFRDLRQFIDEYVETVDMLKSHIKEELMHGEEADAVYESMAHLSTDLLMKCSLNPGCDEDLYESMAAFVPAATEDLYVEMLQASTSNPIPGDGFSRATKDSMIRKFLEGNSMGMTNLERDQCHLGQEEDVYHTVDDDEAFSVDLASRPPVPVPRPETTAPGAHQLPDNEPYIFKVFAEKSQERPGNFYVSSESIRKGPPVRPWRDRPQSSIYDPFAGMKTPGQRQLITLQEQVKLGIVNVDEAVLHFKEWQLNQKKRSESFRFQQENLKRLRDSITRRQREKQKSGKQTDLEITVPIRHSQHLPAKVEFGVYESGPRKSVIPPRTELRRGDWKTDSTSSTASSTSNRSSTRSLLSVSSGMEGDNEDNEVPEVTRSRSPGPPQVDGTPTMSLERPPRVPPRAASQRPPTRETFHPPPPVPPRGR
notes: B-cell adaptor for phosphoinositide 3-kinase (BCAP), human, full-length form BCAPL, residues 1-805; Cloned into the same vector as the His6-tagged TIR domain; source: cloned into pMCSG7, purified (StrepTrap, S200 size exclusion)

Biological target: the molecule itself
Test: AUC; sedimentation velocity, Beckman XL-A, 0.3 to 1 mg/ml, 30,000–40,000 rpm, c(S) and c(M) analysis with SEDFIT

Stoichiometry N, 2:
B1
B2
B3
